Data taken from the supplement of paper PMC10724198.
± gives the standard deviation of the averaged measurements.

System: Saccharomyces cerevisiae
Assay: protein stability index of tFT-peptide fusion (C-terminal peptide) (PSI (0-1 scale)); higher = more stable (slower turnover)
Settings: temperature: 30 C
Method: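 MPS profiling in S. cerevisiae of the yeast C-terminome library: the last 12 aa of each annotated ORF are fused to the C-terminus of a sfGFP-mCherry timer, after a GGGS linker. Cells are FACS-sorted into 8 mCherry/sfGFP bins and deep-sequenced. PSI runs from 0 (unstable) to 1 (stable); wild type and das1Δ backgrounds, two technical replicates each.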

[1] = genetic background: das1 deletion

Row | Sequence | protein stability index [1] | protein stability index (genetic background: wild type)
1 | LISCCCCCFRRC [YNL097W-A C-terminal 12 aa] | 0.6974 ± 0.004 | 0.669 ± 0.016
2 | LKAVCPPDAGFA [YOR387C C-terminal 12 aa] | 0.7086 ± 0.0046 | 0.7462 ± 0.0071
3 | LKHFIKVFSSKL [ARR1 C-terminal 12 aa] | 0.825 ± 0.013 | 0.89 ± 0.024
4 | LKITDDLARKGF [TGL2 C-terminal 12 aa] | 0.7205 ± 0.0035 | 0.666 ± 0.0096
5 | LKKKLYTLEQKK [KEL2 C-terminal 12 aa] | 0.694 ± 0.02 | 0.6241 ± 0.0031
6 | LKLNHSFATIFK [MCM21 C-terminal 12 aa] | 0.684 ± 0.018 | 0.677 ± 0.024
7 | LKQLDNLKSQLN [ARG4 C-terminal 12 aa] | 0.7 ± 0.013 | 0.6755 ± 0.0019
8 | LLNSRATQDVVC [VMA3 C-terminal 12 aa] | 0.6342 ± 0.0054 | 0.66 ± 0.0053
9 | LLQSGRYGGNRS [RCI37 C-terminal 12 aa] | 0.683 ± 0.011 | 0.663 ± 0.021
10 | LLSVDGWRTDQL [QRI7 C-terminal 12 aa] | 0.721 ± 0.014 | 0.758 ± 0.031
11 | LMGAALAAVIFL [FIT1 C-terminal 12 aa] | 0.672 ± 0.018 | 0.668 ± 0.026
12 | LNFYNDNFGSQF [STP1 C-terminal 12 aa] | 0.723 ± 0.0098 | 0.71 ± 0.048
13 | LNKEALKHNMLK [HSH49 C-terminal 12 aa] | 0.691 ± 0.048 | 0.695 ± 0.092
14 | LNKKSSVKILLY [CMS1 C-terminal 12 aa] | 0.693 ± 0.01 | 0.614 ± 0.0071
15 | LNWLIKGILTED [HFI1 C-terminal 12 aa] | 0.753 ± 0.033 | 0.675 ± 0.039
16 | LPSERSRLSYTN [CBP3 C-terminal 12 aa] | 0.703 ± 0.026 | 0.696 ± 0.071
17 | LPSPRFFSPITL [YER158W-A C-terminal 12 aa] | 0.685 ± 0.024 | 0.702 ± 0.008
18 | LQFILPSMNLAN [GPB1 C-terminal 12 aa] | 0.692 ± 0.0087 | 0.656 ± 0.015
19 | LQKFYLQVSTIS [YFR054C C-terminal 12 aa] | 0.456 ± 0.0082 | 0.456 ± 0.0082
20 | LQPMEAFKYDRS [BIO2 C-terminal 12 aa] | 0.71 ± 0.0075 | 0.731 ± 0.046
21 | LRASGDDSDPAY [PFA5 C-terminal 12 aa] | 0.7076 ± 0.0054 | 0.687 ± 0.014

Row | Sequence | protein stability index [1] | protein stability index (genetic background: wild type)
22 | LRKKQVKKKVKS [SLX8 C-terminal 12 aa] | 0.6885 ± 0.0062 | 0.716 ± 0.061
23 | LRRFIICQLHLI [YBR027C C-terminal 12 aa] | 0.523 ± 0.02 | 0.139 ± 0.0035
24 | LRYYVSKLINFK [YNL324W C-terminal 12 aa] | 0.70435 ± 0.00064 | 0.6889 ± 0.00073
25 | LSDSHYELNAES [PMT5 C-terminal 12 aa] | 0.712 ± 0.033 | 0.706 ± 0.044
26 | LSKDGIYTAIPK [PAU15 C-terminal 12 aa] | 0.685 ± 0.025 | 0.767 ± 0.12
27 | LSRVGELYLSTD [SEC7 C-terminal 12 aa] | 0.683 ± 0.02 | 0.692 ± 0.038
28 | LSVEEDRDVQMT [APC5 C-terminal 12 aa] | 0.684 ± 0.013 | 0.729 ± 0.054
29 | LVDIITGASSLG [ATP3 C-terminal 12 aa] | 0.6894 ± 0.004 | 0.719 ± 0.041
30 | LVVARDMLLASL [SPC25 C-terminal 12 aa] | 0.6474 ± 0.0048 | 0.624 ± 0.024
31 | LVYENVRVPRYL [IFM1 C-terminal 12 aa] | 0.697 ± 0.015 | 0.6639 ± 0.0064
32 | LWNLSDNCKNTV [MMS1 C-terminal 12 aa] | 0.707 ± 0.02 | 0.7014 ± 0.0061
33 | LYAQLRENGLVP [SNU114 C-terminal 12 aa] | 0.695 ± 0.035 | 0.683 ± 0.038
34 | MAEKQIASEFNY [DBP7 C-terminal 12 aa] | 0.721 ± 0.012 | 0.662 ± 0.0067
35 | MAQNYVIDRMGL [MTC1 C-terminal 12 aa] | 0.707 ± 0.027 | 0.68 ± 0.037
36 | MEKSDRYIQETW [TAH18 C-terminal 12 aa] | 0.7032 ± 0.0048 | 0.691 ± 0.009
37 | MERELIKEEYDN [PAA1 C-terminal 12 aa] | 0.702 ± 0.025 | 0.67 ± 0.031
38 | MERLQKGWSLAK [MDY2 C-terminal 12 aa] | 0.71 ± 0.043 | 0.684 ± 0.02
39 | MFGKLGRYLYSH [NSG2 C-terminal 12 aa] | 0.75552 ± 0.00052 | 0.211 ± 0.04
40 | MFNQGKVEEMDF [SML1 C-terminal 12 aa] | 0.7189 ± 0.0047 | 0.692 ± 0.017
41 | MGIRLRYNVEPK [RPA135 C-terminal 12 aa] | 0.735 ± 0.041 | 0.663 ± 0.014
42 | MKFNVISFLFHK [NAM2 C-terminal 12 aa] | 0.688 ± 0.011 | 0.615 ± 0.011

Row | Sequence | protein stability index [1] | protein stability index (genetic background: wild type)
43 | MKQLEKAGVRFE [FMP33 C-terminal 12 aa] | 0.6871 ± 0.0014 | 0.686 ± 0.014
44 | MLGVGSLLFLAF [ROT1 C-terminal 12 aa] | 0.698 ± 0.03 | 0.691 ± 0.026
45 | MLYTSYQSIFGV [AVT4 C-terminal 12 aa] | 0.707 ± 0.015 | 0.706 ± 0.0086
46 | MNSAMNVQPTGF [CHC1 C-terminal 12 aa] | 0.6951 ± 0.0016 | 0.662 ± 0.033
47 | MTQWLEISILMN [YCL001W-A C-terminal 12 aa] | 0.544 ± 0.05 | 0.319 ± 0.034
48 | MVGVLFFWVWIT [BET1 C-terminal 12 aa] | 0.201 ± 0.0064 | 0.123 ± 0.018
49 | NAPRFGVEYQMT [PHO89 C-terminal 12 aa] | 0.72259 ± 0.00055 | 0.67 ± 0.017
50 | NCANCVYFSSRG [YDL221W C-terminal 12 aa] | 0.7169 ± 0.0029 | 0.716 ± 0.043
51 | NDAQKRAIDENF [SIS1 C-terminal 12 aa] | 0.687 ± 0.016 | 0.683 ± 0.0076
52 | NDQNKNKQNAKR [YIL156W-A C-terminal 12 aa] | 0.7078 ± 0.0055 | 0.639 ± 0.011
53 | NDTIFKLKVFKL [ILS1 C-terminal 12 aa] | 0.7346 ± 0.001 | 0.759 ± 0.099
54 | NEDDYLAVKYVL [FES1 C-terminal 12 aa] | 0.687 ± 0.018 | 0.696 ± 0.044
55 | NEGSEEEPEIDQ [BDP1 C-terminal 12 aa] | 0.6878 ± 0.0019 | 0.702 ± 0.037
56 | NEKGNDDSDAKK [ILM1 C-terminal 12 aa] | 0.695 ± 0.041 | 0.685 ± 0.029
57 | NEKRNEPKPSTN [YTA12 C-terminal 12 aa] | 0.6938 ± 0.0025 | 0.656 ± 0.017
58 | NEMRERLRALQN [VPS24 C-terminal 12 aa] | 0.668 ± 0.011 | 0.685 ± 0.054
59 | NENKKANGNNCC [YPT31 C-terminal 12 aa] | 0.705 ± 0.017 | 0.652 ± 0.036
60 | NHFHYDCVYRYC [YOR333C C-terminal 12 aa] | 0.6939 ± 0.0038 | 0.404 ± 0.03
61 | NIKSSTLPGLSI [PFS2 C-terminal 12 aa] | 0.694 ± 0.02 | 0.664 ± 0.029
62 | NKYMNEMLEYMQ [NUF2 C-terminal 12 aa] | 0.715 ± 0.0072 | 0.719 ± 0.085
63 | NLAGRKNSRDNE [LOT5 C-terminal 12 aa] | 0.681 ± 0.017 | 0.6772 ± 0.0027

Row | Sequence | protein stability index [1] | protein stability index (genetic background: wild type)
64 | NLDNLFMASSLI [AIM6 C-terminal 12 aa] | 0.7128 ± 0.0018 | 0.658 ± 0.033
65 | NMGGWVLGGNAR [SND1 C-terminal 12 aa] | 0.721 ± 0.023 | 0.6926 ± 0.0057
66 | NNGSSNNNTQNT [SNF5 C-terminal 12 aa] | 0.67 ± 0.014 | 0.673 ± 0.022
67 | NNLHSYEKRLHN [YAR075W C-terminal 12 aa] | 0.69 ± 0.019 | 0.7 ± 0.015
68 | NNQPHYRDQLLQ [REI1 C-terminal 12 aa] | 0.6976 ± 0.0028 | 0.706 ± 0.048
69 | NNVDVSWVDKLV [STB5 C-terminal 12 aa] | 0.712 ± 0.013 | 0.714 ± 0.046
70 | NPAARLDEDLYE [FRS2 C-terminal 12 aa] | 0.662 ± 0.053 | 0.707 ± 0.022
71 | NQKNEDLSDIKL [UTP30 C-terminal 12 aa] | 0.658 ± 0.019 | 0.755 ± 0.13
72 | NQTSFSRDRLRR [RRD1 C-terminal 12 aa] | 0.702 ± 0.013 | 0.722 ± 0.066
73 | NRAKGKVVVKMK [YIM1 C-terminal 12 aa] | 0.69 ± 0.022 | 0.6976 ± 0.0037
74 | NRRNNGYHPYNR [HRP1 C-terminal 12 aa] | 0.688 ± 0.019 | 0.6645 ± 0.0011
75 | NSARKRVFGTVI [DIP2 C-terminal 12 aa] | 0.6997 ± 0.0036 | 0.655 ± 0.0069
76 | NSISPPPRKGFI [YGL006W-A C-terminal 12 aa] | 0.7177 ± 0.005 | 0.714 ± 0.055
77 | NTFTEHNSNIYY [SPT10 C-terminal 12 aa] | 0.704 ± 0.021 | 0.706 ± 0.029
78 | NTNELTDEHRWI [PHO2 C-terminal 12 aa] | 0.6977 ± 0.0017 | 0.668 ± 0.017
79 | NVFNPDQPRMGP [YLR154W-A C-terminal 12 aa] | 0.711 ± 0.017 | 0.711 ± 0.018
80 | NVGYMHTQPQQR [TCO89 C-terminal 12 aa] | 0.71 ± 0.0077 | 0.67 ± 0.016
81 | NVIRVWQVMTAN [ASC1 C-terminal 12 aa] | 0.576 ± 0.0091 | 0.272 ± 0.016
82 | NVLTVVNPDEAD [SLG1 C-terminal 12 aa] | 0.692 ± 0.027 | 0.6841 ± 0.0015
